The DeepSol protein solubility set

Experiment: soluble on expression in E. coli; label from the status in PepcDB or PDB records

Sequence	soluble on expression in E. coli
HRPLNPAMVAFSNDPLLNDLALNSSYSLLFAVNNMKSEKSAEQFYGKMDNQKMLDLVRASSTKIDFDPTLLPTMNSNPATYQGKRKNLVILLQESLGAQFVGSLGGLPLTPNLDELMQEGWQFTQMYATGTRSVRGIEAVTTGFPPSPSRAVVKLSKSQTGFFTIADLLKEQGYHTQFIYGGEANFDNMKTFFFGNGFDQIVEEKNYTNPGFVGSWGVSDEDLYNKADEEFERLSKGDKPFFSLVFTSSNHSPYEYPEGKIEQYDSEHMTRNNAVKYSDYALGTFFDKAKKSSYWDDTIFIVIADHDARVFGANLVPVKHFHIPALIIGKDIQPRKDDRIANNIDMPPTLLSLIGVDAKTPMIGRDLTKPLAREDERAMMQYDKNFGYLTRDNLVVLSPGEKVSTMEYDFESQTMKPLEVDESVIDRAKANALFASKAYQNNWYSSKRTN	soluble
HRSGGFPVYKNTKVTYFPNGQSKFEEMKKQLLKAEKFIFLEYFIIAEGLMWGEILSILEQKVQEGVEVRVMYDGMLELSTLSFDYAKRLEKIGIKAKVFSPITPFVSTYYNYRDHRKILVIDNKVAFNGGINLADEYINQIERFGYWKDTAVMLEGEGVASFTLMFLQMWSTTNKDYEFAPYLTQNFHEIVANGYVIPYSDSPLDHEKVGENV	not soluble
HRVGLYEKALPNHLSWEEKLACTKELGFDFLEISVDESDERRSRLDWDDATIYSLHRLCEEYGVPLQSMCLSAHRKFPFGSADPALRDEALKIMQKAITLAYKLGIRTIQLAGYDVYYEPANSATHQRFIEGMQHAARLAERAGVMLAVEIMDTPYLNALSKFEVLNRQIQSPFFTAYPDVGNISGWNYDLLTELSLSKPHITQIHLKDTYKVSEQYAGQFRDLVIGEGDVDFDELFCRLKALDCVVPLVIEMWAHDEQWQQHIHTAQRRLNQACDRAELP	not soluble
HYRRHSVESKLARAALDGMTAVMISDASLRIIMVNQEFENMMGYSTEQVKGSNAHSLILLPEDLEETLNIWNKLGRENVWEGEVRCRTQLNHVFTAIMRIQANLTKSGKISYYITSLVDISE	not soluble
IEPEFIGNENYKNLIVSWGTTYYPIKDALEELNLKDTAFIHFSQIYPISESGEKYLKKAEKVVNIELNYTGQLGRLLKREFGIEMNDSILKYDGRVFSVEELSEKIKKVLRG	not soluble
IFPFKEPPMALEKHGTCLCGDTRLTVTVDNTHISACHCSMCRKWTGGPLLVVHCSKPPLIEGRAPSVYDSSDWAQRAFCGRCGTHLYYRLKANDFHAVPVGLLDGDQAWDFDLQIFVEEKPAWYCFANQTKELSGQE	not soluble
IGAWGYNVGFNLYDSKTVVTKYHNESKIILKSDGTNNYYEGYEIGSIWGYVTDGYYTADDFEDTNTWKLKEGVVTVDGVSPRPGDIKYQNLRDDGSSTNRIDTGDGTFDNPGDRKIIGNNSLRLQYGINLGVNYKGFDLSVLLQGVGKRDVWISDARRWPFNSGQFGSLFKDQLDYWKPVDSANGDWTAANPNAEYFRIYGQGNNSSYNTRAQTKYLMNGSYLRVKNVTLSYNFPKSWLAPITLTSLKAFVSCENLHTFTKLMKGYDPERLSWGYPFYRTISFGFNVTL	not soluble
IGEVDLTVRANMTYSKNEIKEYDEENSRYPYKMKYGFRVDQARGLIAEGLFKDYEEIRNRPSQGSGIMPGDIKYKDVNGDGVINGDDEVPIGATTRPNLIYGFGVSAQWKEFDINVHFQGAGKSSFFIDGFTVYPFQEKSWGNILTDVVGNYWSLGTNEDPNAKYPRLSYGGNSNNYRASTYWLRNGSYIRLKNVELGYNIPKRFVNKLHLDRVRLYLMGTNLLTFSDFKLWDPELGSSNGQQYPLSRTVTIGLTVGI	not soluble
IGFRFDDSKGTVFIDGDVEEITGYSTEDFLSHRVKWADLVLPEDQYLIFERINRSVSNPDHSIETEYRIKRKNGEIRWIREFLQKFPEESKNSRQFQGFIHDITGRKKA	not soluble
IGQVDFGIAGNFSYNKNEILDLGGGDPNKYLDATDGYSQRNKVGEAMNSYYIYRADGFFNSQEEADAYTAKYGNPFGKTFKAGDLRYVDTNKDGKLTADDREYCGSSDPKIIYGFNINAGWKGIDLSLMFNGAAGVKRLFDGYEVYGNFSGDAAHPATIWRDAWTPDNHDASMPRIFYDTNSASSSRSVQSDFWLQDTSYLRLKNLQLGYTLPKGWLNSVGVENIRIYYSVENLLTFDKMKINIDPESTSQRLSSYPLLRTHAFGVNVTF	not soluble
IKKPMSASALFVQDHRPQFLIENPKTSLEDATLQIEELWKTLSEEEKLKYEEKATKDLERYNSQMKRAIEQESQMSLKD	soluble
IPELKDHLRIFRPRKLTLKGYRQHWVVFKETTLSYYKSQDEAPGDPIQQLNLKGCEVVPDVNVSGQKFCIKLLVPSPEGMSEIYLRCQDEQQYARWMAGCRLASKGRTMADSSYTSEVQAILAFLSLQRT	soluble
IQILSKSKLEKCEKTSDSGNLNCSTKIVLNLAVPSGSSGGEASIVAEIVEVEDNSSSNMQTVRIPPVITVNKSAAYALYDLTYIRDVPYKPQEYHVTTRKCEPDAGPDIVQICERLRDEKGNVLEQTQPICCPCGPQRRMPSSCGDIFDKMIKGKANTAHCLRFPGDWFHVFGIGQRSLGFSVRVELKTGTRVSEVIIGPENRTATANDNFLKVNLIGDFGGYTSIPSFEDFYLVIPREAAEAGQPGSLGANYSMWMLLERVRFTLDGLECNKIGVGYEAFNTQPNFCSSPYWSCLHNQLWNFRESDINRIDRHQLPLYGLEGRFERINQHPNAGPHSFSIGVTETLNTNLMIELRADDIEYVFQRSPGKIINIAIPTFEALTQFGVAAVIIKNTGEVEASYSLTFDCSKGVAFVEEQFFIIKPKAVTTRSFKLYPTKDQAAKYICTAILKDSQFSEVDRAECQFSTTATVLDNGTQVTNPFQIPETQPKGFFDSIRILWTKIINGLVDFITGDTCRNKCSSFFDFSCHIQYVCLS	not soluble
ITDNTLIRNDTGDGDAVYDLVLNADGLDEDYSYQLKVMEEQPSDKQANELFTQAKKEIDDSFCEENQSVEQVRGHVIMKDAYASGAVEAEWTLSDYDVVDINGDVNQDAFEEADDEQGKLISASVELSCGEHRQLYDFSFVVFPDELEAGERLIKDINRHIDSEMSKTGTKKLTLPDEVDGVKLSWSQEKSNTAAKIAMLEVVVIVLLVLEKKEKKKTAQKERNIQLQLEYPEIVSKMAVLMGSGMTVEQAWNRITARYLDERKNNDKNIMPAYEEMLVTEREISDGVTGRKAYAGFAERVKLPCYQKLVRIILQSIHKGSKGVCEMLEKESEDAFDERRLLALKLGEEAGTKM	not soluble
ITEQTGQLVYDYNIEKDIADVAGNIEELTGFTSEELGNINLKLWTSRIHPEDLNRFLENHKKYLEPDRKSYRIEYRFRKKNGEYIYLEENWVSPEGDRKSSVKRVLGVIKNITERKQA	not soluble
ITLAVKVGMIQLCGCSGCHISLLDLHDKLLEVLPNLEIVYAPIIADPKEIPEGIDVFLVEGGIRNEHDEHLIHEIREKSKIVIAWGTCAAYGGIPGLGNLYKKEELLNYVYSTDSTENKGEIPSEEIPPLEEYVKPIKDFIKVDYTIPGCPPTPKMIADAIIALLNGEEPKLPTKIVC	not soluble
KADNSSVEKLVVQVQQLDPVKGNKDVGTVEITESAYGLVFTPHLHGLAQGLHGFHIHQNPSCEPKEKDGKLVAGLGAGGHWDPKETKQHGYPWSDNAHLGDLPALFVEHDGSATNPVLAPRLKKLDEVKGHSLMIHEGGDNHSDHPAPLGGGGPRMACGVIK	soluble
KALVSIQASNIPKTAYTATDFVDMNSYSYNNITTSLPGNYADFAVIEVNLNLKNQRDQQILHDFVKPAIKAYKALGDTLELFSAKPLNQFIEQNYYLLGYPVINKGNNTANLLLAQQKSFDHNNSDHNQKSQWFTK	not soluble
KANFQWETGFTFSVNKNTIKKLYGEYETIVDALGNTIVKERDDVTNGWFIGHPVSAIWDYKVTGIWQKDEVKEAAKYSQRPGDPKVQNIYTDDDKVNADGSVTPVYNNKDKQFMGETTPPIHWSLRNSFTIFKDWVFSFNMYSYMGHKSLDTNYLNNDNNYSQITNCRNVYTKEYWTVDNPSNTYARLSAQGPTGISAPARVIDRSFIRLENISLAYNIPMKFLEKYKIQNAKIFTTVRNVATWSKEWEYGDPETGGLAPRTYSLGINLTF	not soluble
